Molecular target: T1, sigma-factor σ^A from Bacillus subtilis (Bacillus subtilis W168, UniProt P06224 1-371)
T1 construct: RNA polymerase sigma factor A (house-keeping sigma factor), Bacillus subtilis W168; gene amplified from the chromosome and cloned into pBAD18; also called house-keeping sigma-factor σ^A; σ^A-subunit of RNAP; source: E. coli, pBAD18, purified on Ni-NTA columns
Assay: native gel or EMSA; super-shift of ComA-bound biotinylated rapA promoter DNA (ComA at full occupancy) on adding α or σ^A; 10 mM HEPES pH 7.6, 2 mM MgCl2, 0.1 mM EDTA, 200 mM KCl, 5 mM DTT, 10% glycerol; 20 min at room temperature; native 8% polyacrylamide gel, 0.5x TBE
Conditions: both partners purified

T1 sequence (P06224 whole entry): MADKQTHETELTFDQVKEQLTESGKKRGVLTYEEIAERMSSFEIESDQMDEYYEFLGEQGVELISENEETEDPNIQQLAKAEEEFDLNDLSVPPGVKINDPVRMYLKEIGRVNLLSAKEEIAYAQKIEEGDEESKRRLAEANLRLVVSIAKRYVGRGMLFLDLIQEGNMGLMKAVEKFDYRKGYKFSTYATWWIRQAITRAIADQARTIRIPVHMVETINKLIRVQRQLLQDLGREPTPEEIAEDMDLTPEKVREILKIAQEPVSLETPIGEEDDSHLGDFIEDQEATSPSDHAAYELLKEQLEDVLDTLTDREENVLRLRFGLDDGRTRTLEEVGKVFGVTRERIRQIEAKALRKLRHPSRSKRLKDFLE

B1: ComA from Bacillus subtilis (His6-tagged ComA protein) (natural protein, Bacillus subtilis W168, UniProt P14204 1-214, looked up)
chain: MKKILVIDDHPAVMEGTKTILETDSNLSVDCLSPEPSEQFIKQHDFSSYDLILMDLNLGGEVNGMELSKQILQENPHCKIIVYTGYEVEDYFEEAIRAGLHGAISKTESKEKITQYIYHVLNGEILVDFAYFKQLMTQQKTKPAPSSQKEQDVLTPRECLILQEVEKGFTNQEIADALHLSKRSIEYSLTSIFNKLNVGSRTEAVLIAKSDGVL
notes: Transcription factor ComA, Bacillus subtilis W168; gene amplified from the chromosome and cloned into pBAD18; At full occupancy the rapA promoter probably carries more than one dimer; also called recombinant His6-tagged ComA; source: E. coli, pBAD18, purified on Ni-NTA columns; not shown: His6, N-terminal, kept
binding result: binds

Source: publication PMC4797271, “The quorum-sensing regulator ComA from Bacillus subtilis activates transcription using topologically distinct DNA motifs” (Nucleic Acids Research, 2015)
